Test results from patent publication US20190359674A1.
Positions of bridges follow the written chain, without caps; N, C: chain ends. Non-standard residues stand in square brackets, D forms with d. Dap = NC[C@H](N)C(=O)O

Target: T1, recombinant human MAS1 receptor (human), P04201
T1 chain: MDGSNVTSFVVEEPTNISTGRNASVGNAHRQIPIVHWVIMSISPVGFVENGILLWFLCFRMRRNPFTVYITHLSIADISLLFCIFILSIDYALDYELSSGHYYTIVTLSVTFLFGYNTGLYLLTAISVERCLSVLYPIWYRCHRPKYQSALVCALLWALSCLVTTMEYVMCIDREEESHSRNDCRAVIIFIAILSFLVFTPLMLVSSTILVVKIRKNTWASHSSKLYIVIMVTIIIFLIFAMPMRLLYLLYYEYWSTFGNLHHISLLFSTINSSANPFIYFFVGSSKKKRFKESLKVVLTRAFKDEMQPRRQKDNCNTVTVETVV
Experiment: cell-based or functional assay

B1: cyclotide MCo-AT1-7 (designed binder)
chain: GGVCPKILQRCRRDSDCPGACICRGNGYCGSG[Dap]RVYIHE-OH
modifications: disulfide 11-23, 17-29, 4-21; lactam N-39 (inferred); also: Gly32 joined to Dap33 β-amino group by isopeptide bond, Dap33 α-amino group free
In the case of B1, the activity in the MAS1 activation (NO release) assay relative to peptide AT1-7, at 10 nM (% of AT1-7 activity) is reported as 90.
